Reference: US20250019439A1 (Adimab, published 2025)

Columns and labels:
[1] = biological target: T1, ADI-22523 Fab; assay: BLI; tip anti-ID IgG, solution ADI-22523 Fab
T1 construct: anti-CD3 Fab by papain digestion of the IgG
Procedure, shortened: (§1)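 Bio-layer interferometry with anti-ID IgG loaded on AHC tips. KD (koff/kon) from 1:1 binding model fit; avid format.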

[2] = biological target: T2, ADI-22523 IgG; assay: BLI; tip anti-ID IgG, solution ADI-22523 IgG
T2 construct: anti-CD3 IgG
Procedure, shortened: as §1

[3] = biological target: T3, ADI-48576; assay: SPR Carterra, yeast anti-ID
T3 construct: pH-dependent anti-CD3 antibody made in CHO cells
Procedure, shortened: (§2)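 Surface plasmon resonance on a Carterra LSA at 25° C, HBSTE buffer. The anti-CD3 antibody is Fc-captured (100 nM, 5 min) and the anti-idiotype antibody serves as analyte; dissociation lasts 300s and the surface is regenerated with 10 mM glycine pH 1.7.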

[4] = biological target: T4, CTL-62240; assay: SPR Carterra, yeast anti-ID
T4 construct: also called ONO-4685
Procedure, shortened: as §2

[5] = biological target: T5, ADI-48592; assay: SPR Carterra, yeast anti-ID
T5 construct: pH-dependent anti-CD3 antibody made in CHO cells
Procedure, shortened: as §2

[6] = biological target: T6, CTL-62228; assay: SPR Carterra, yeast anti-ID
T6 construct: also called glofitamab
Procedure, shortened: as §2

[7] = biological target: T7, CTL-62227; assay: SPR Carterra, yeast anti-ID
T7 construct: also called odronextamab
Procedure, shortened: as §2

[8] = biological target: T8, ADI-26920 IgG; assay: SPR Carterra avidity, yeast anti-ID, *koff limit
T8 construct: anti-CD3 IgG
Procedure, shortened: as §2

[9] = biological target: T9, ADI-26906 IgG; assay: SPR Carterra avidity, yeast anti-ID, *koff limit
T9 construct: anti-CD3 IgG
Procedure, shortened: as §2

[10] = biological target: T10, ADI-26919; assay: SPR Carterra avidity, yeast anti-ID, *koff limit
T10 construct: anti-CD3 antibody made in CHO cells, captured by anti-human Fc
Procedure, shortened: as §2

[11] = biological target: T11, ADI-26924; assay: SPR Carterra avidity, yeast anti-ID
T11 construct: anti-CD3 antibody made in CHO cells, captured by anti-human Fc
Procedure, shortened: as §2

[12] = biological target: T12, ADI-74965; assay: SPR Carterra avidity, yeast anti-ID
T12 construct: pH-dependent anti-CD3 antibody made in CHO cells
Procedure, shortened: as §2

[13] = biological target: T13, ADI-67447; assay: SPR Carterra avidity, yeast anti-ID
T13 construct: anti-CD3 antibody made in CHO cells, captured by anti-human Fc
Procedure, shortened: as §2

[14] = biological target: T14, ADI-70326; assay: SPR Carterra avidity, yeast anti-ID
T14 construct: anti-CD3 antibody made in CHO cells, captured by anti-human Fc
Procedure, shortened: as §2

[15] = biological target: T15, ADI-48650; assay: SPR Carterra avidity, yeast anti-ID
T15 construct: pH-dependent anti-CD3 antibody made in CHO cells
Procedure, shortened: as §2

[16] = biological target: T16, ADI-26916 IgG; assay: SPR Carterra avidity, yeast anti-ID
T16 construct: anti-CD3 IgG
Procedure, shortened: as §2

[17] = biological target: T17, ADI-48587; assay: SPR Carterra avidity, yeast anti-ID
T17 construct: pH-dependent anti-CD3 antibody made in CHO cells
Procedure, shortened: as §2

[18] = biological target: T18, ADI-50024; assay: SPR Carterra avidity, yeast anti-ID
T18 construct: anti-CD3 antibody made in CHO cells, captured by anti-human Fc
Procedure, shortened: as §2

[19] = biological target: T19, ADI-26909; assay: SPR Carterra avidity, yeast anti-ID
T19 construct: anti-CD3 antibody made in CHO cells, captured by anti-human Fc
Procedure, shortened: as §2

[20] = biological target: T20, ADI-26943; assay: SPR Carterra avidity, yeast anti-ID
T20 construct: anti-CD3 antibody made in CHO cells, captured by anti-human Fc
Procedure, shortened: as §2

[21] = biological target: T21, ADI-70330; assay: SPR Carterra avidity, yeast anti-ID
T21 construct: anti-CD3 antibody made in CHO cells, captured by anti-human Fc
Procedure, shortened: as §2

[22] = biological target: T22, ADI-67450; assay: SPR Carterra avidity, yeast anti-ID
T22 construct: anti-CD3 antibody made in CHO cells, captured by anti-human Fc
Procedure, shortened: as §2

[23] = biological target: T23, ADI-76358; assay: SPR Carterra avidity, yeast anti-ID
T23 construct: anti-CD3 antibody made in CHO cells, captured by anti-human Fc
Procedure, shortened: as §2

[24] = biological target: T24, ADI-76357; assay: SPR Carterra avidity, yeast anti-ID
T24 construct: anti-CD3 antibody made in CHO cells, captured by anti-human Fc
Procedure, shortened: as §2

[25] = biological target: T25, ADI-67445; assay: SPR Carterra avidity, yeast anti-ID
T25 construct: anti-CD3 antibody made in CHO cells, captured by anti-human Fc
Procedure, shortened: as §2

[26] = biological target: T26, ADI-76361; assay: SPR Carterra avidity, yeast anti-ID
T26 construct: anti-CD3 antibody made in CHO cells, captured by anti-human Fc
Procedure, shortened: as §2

[27] = biological target: T27, ADI-76359; assay: SPR Carterra avidity, yeast anti-ID
T27 construct: anti-CD3 antibody made in CHO cells, captured by anti-human Fc
Procedure, shortened: as §2

[28] = biological target: T28, ADI-76360; assay: SPR Carterra avidity, yeast anti-ID
T28 construct: anti-CD3 antibody made in CHO cells, captured by anti-human Fc
Procedure, shortened: as §2

[29] = biological target: T29, ADI-26913 IgG; assay: SPR Carterra avidity, yeast anti-ID
T29 construct: anti-CD3 IgG
Procedure, shortened: as §2

[30] = biological target: T30, ADI-26915; assay: SPR Carterra avidity, yeast anti-ID
T30 construct: anti-CD3 antibody made in CHO cells, captured by anti-human Fc
Procedure, shortened: as §2

[31] = biological target: T31, ADI-76362; assay: SPR Carterra avidity, yeast anti-ID
T31 construct: anti-CD3 antibody made in CHO cells, captured by anti-human Fc
Procedure, shortened: as §2

[32] = biological target: T32, ADI-26912; assay: SPR Carterra avidity, yeast anti-ID
T32 construct: anti-CD3 antibody made in CHO cells, captured by anti-human Fc
Procedure, shortened: as §2

[33] = biological target: T33, ADI-74966; assay: SPR Carterra avidity, yeast anti-ID
T33 construct: pH-dependent anti-CD3 antibody made in CHO cells
Procedure, shortened: as §2

[34] = biological target: T34, ADI-70327; assay: SPR Carterra avidity, yeast anti-ID
T34 construct: anti-CD3 antibody made in CHO cells, captured by anti-human Fc
Procedure, shortened: as §2

[35] = biological target: T35, ADI-74967; assay: SPR Carterra avidity, yeast anti-ID
T35 construct: pH-dependent anti-CD3 antibody made in CHO cells
Procedure, shortened: as §2

[36] = biological target: T36, ADI-26921 IgG; assay: SPR Carterra avidity, yeast anti-ID
T36 construct: anti-CD3 IgG
Procedure, shortened: as §2

[37] = biological target: T37, ADI-74968; assay: SPR Carterra avidity, yeast anti-ID
T37 construct: pH-dependent anti-CD3 antibody made in CHO cells
Procedure, shortened: as §2

T5 sequence (VH, as listed by the source, chain 1 of 2): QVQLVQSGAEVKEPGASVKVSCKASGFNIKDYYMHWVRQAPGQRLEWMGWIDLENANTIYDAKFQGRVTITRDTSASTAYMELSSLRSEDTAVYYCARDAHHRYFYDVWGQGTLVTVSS
T5 sequence (VL, as listed by the source, chain 2 of 2): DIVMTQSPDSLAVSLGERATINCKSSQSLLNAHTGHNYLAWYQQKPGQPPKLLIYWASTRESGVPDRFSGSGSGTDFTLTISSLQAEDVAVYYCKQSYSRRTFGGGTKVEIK
T32 sequence (VH, as listed by the source, chain 1 of 2): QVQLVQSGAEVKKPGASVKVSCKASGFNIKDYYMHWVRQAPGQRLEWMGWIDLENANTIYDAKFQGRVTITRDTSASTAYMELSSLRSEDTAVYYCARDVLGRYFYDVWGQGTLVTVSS
T32 sequence (VL, as listed by the source, chain 2 of 2): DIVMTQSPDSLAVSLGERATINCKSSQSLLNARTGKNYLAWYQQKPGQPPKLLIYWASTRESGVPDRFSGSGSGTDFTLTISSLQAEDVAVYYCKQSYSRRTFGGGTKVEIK
T11 sequence (VH, as listed by the source, chain 1 of 2): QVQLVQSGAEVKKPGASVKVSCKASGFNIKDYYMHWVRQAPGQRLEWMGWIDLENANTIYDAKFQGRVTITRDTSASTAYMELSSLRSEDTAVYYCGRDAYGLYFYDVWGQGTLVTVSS
T11 sequence (VL, as listed by the source, chain 2 of 2): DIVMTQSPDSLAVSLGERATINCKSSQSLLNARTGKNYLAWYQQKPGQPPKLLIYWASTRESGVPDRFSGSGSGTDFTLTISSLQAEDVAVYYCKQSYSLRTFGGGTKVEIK
T17 sequence (VH, as listed by the source, chain 1 of 2): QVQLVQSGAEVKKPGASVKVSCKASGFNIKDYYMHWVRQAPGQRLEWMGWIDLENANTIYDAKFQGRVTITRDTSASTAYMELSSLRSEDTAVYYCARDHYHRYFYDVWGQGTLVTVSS
T17 sequence (VL, as listed by the source, chain 2 of 2): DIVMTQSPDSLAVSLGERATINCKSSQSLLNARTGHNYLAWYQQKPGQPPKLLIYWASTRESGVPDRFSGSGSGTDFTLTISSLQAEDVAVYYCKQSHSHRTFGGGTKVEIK
T35 sequence (VL, as listed by the source, chain 2 of 2): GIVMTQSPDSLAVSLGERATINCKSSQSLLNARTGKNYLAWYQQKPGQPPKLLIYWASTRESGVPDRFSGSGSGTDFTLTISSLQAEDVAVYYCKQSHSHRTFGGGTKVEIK
T33 sequence (VL, as listed by the source, chain 2 of 2): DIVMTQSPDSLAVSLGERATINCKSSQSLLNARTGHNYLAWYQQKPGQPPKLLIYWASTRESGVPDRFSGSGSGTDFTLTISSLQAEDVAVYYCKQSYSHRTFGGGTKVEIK
T24 sequence (VH, as listed by the source, chain 1 of 2): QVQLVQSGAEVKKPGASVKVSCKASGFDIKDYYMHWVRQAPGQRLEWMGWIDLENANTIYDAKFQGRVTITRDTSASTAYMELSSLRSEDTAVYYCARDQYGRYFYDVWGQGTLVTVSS
T36 sequence (VH, as listed by the source limits assumed, chain 1 of 2): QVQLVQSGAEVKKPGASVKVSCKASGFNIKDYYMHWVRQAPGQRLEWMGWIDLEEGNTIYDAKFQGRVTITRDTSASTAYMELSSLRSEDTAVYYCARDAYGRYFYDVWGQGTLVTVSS
T7 sequence (VH, as listed by the source, chain 1 of 2): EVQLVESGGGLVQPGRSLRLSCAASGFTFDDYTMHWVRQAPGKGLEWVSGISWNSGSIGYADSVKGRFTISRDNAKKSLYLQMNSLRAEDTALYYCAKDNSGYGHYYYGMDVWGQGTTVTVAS
T7 sequence (VL, as listed by the source, chain 2 of 2): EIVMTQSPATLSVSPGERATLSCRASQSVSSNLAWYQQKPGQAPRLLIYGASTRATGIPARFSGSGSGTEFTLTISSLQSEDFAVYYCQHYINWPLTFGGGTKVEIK
T31 sequence (VH, as listed by the source, chain 1 of 2): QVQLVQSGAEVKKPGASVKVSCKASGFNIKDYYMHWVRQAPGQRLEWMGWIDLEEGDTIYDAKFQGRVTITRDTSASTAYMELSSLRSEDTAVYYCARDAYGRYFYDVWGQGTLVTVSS
T25 sequence (VH, as listed by the source limits assumed, chain 1 of 2): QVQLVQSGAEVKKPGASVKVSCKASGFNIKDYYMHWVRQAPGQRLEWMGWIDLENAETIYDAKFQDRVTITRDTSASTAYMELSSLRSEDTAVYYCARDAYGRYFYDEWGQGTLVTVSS
T18 sequence (VH, as listed by the source limits assumed, chain 1 of 2): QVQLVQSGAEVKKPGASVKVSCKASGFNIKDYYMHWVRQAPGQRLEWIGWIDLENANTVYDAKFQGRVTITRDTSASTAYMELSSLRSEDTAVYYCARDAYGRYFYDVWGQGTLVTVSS
T18 sequence (VL, as listed by the source limits assumed, chain 2 of 2): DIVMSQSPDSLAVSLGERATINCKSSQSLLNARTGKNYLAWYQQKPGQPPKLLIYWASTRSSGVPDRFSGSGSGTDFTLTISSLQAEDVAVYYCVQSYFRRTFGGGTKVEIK
T3 sequence (VH, as listed by the source, chain 1 of 2): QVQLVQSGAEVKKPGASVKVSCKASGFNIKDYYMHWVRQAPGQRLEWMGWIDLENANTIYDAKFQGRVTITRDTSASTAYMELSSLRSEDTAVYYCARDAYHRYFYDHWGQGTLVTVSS
T3 sequence (VL, as listed by the source, chain 2 of 2): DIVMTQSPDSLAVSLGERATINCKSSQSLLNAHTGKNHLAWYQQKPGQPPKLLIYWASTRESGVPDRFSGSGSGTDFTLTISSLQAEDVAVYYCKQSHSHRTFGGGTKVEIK
T14 sequence (VH, as listed by the source limits assumed, chain 1 of 2): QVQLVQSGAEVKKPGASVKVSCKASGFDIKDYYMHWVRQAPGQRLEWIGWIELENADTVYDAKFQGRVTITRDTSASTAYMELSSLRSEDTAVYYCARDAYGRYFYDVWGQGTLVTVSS
T30 sequence (VH, as listed by the source, chain 1 of 2): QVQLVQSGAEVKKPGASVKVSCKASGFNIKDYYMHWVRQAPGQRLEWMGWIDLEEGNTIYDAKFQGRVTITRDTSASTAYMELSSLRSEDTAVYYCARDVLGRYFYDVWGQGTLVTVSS
T1 sequence (VH, as listed by the source limits assumed, chain 1 of 2): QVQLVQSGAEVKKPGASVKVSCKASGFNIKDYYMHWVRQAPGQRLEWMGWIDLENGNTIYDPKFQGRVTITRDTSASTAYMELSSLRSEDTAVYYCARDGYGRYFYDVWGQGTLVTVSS
T1 sequence (VL, as listed by the source limits assumed, chain 2 of 2): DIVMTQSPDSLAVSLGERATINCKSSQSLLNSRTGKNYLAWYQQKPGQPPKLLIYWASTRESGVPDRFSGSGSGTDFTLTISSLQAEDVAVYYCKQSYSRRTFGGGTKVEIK
T10 sequence (VH, as listed by the source limits assumed, chain 1 of 2): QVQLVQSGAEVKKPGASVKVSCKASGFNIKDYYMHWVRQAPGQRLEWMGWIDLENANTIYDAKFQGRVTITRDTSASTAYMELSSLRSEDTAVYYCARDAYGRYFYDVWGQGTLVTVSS

B1: ADI-34133 (antibody, V domains shown)
VH: QVQLVQSGAEVKKPGSSVKVSCKASGGTFSSYAISWVRQAPGQGLEWMGGIIPIFGTANYAQKFQGRVTITADESTSTAYMELSSLRSEDTAVYYCARGAPNYYGSGGYDDGWFDPWGQGTLVTVSS
VL: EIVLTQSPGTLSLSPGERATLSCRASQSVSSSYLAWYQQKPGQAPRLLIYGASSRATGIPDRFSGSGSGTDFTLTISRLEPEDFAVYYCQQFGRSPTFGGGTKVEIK
notes: anti-ID IgG
[1]
  Kd: 9.59 nM
[2]
  Kd: 0.59 nM
[3]
  binding result: no binding (tested: up to 200 nM)
[4]
  binding result: no binding (tested: up to 200 nM)
[5]
  binding result: no binding (tested: up to 200 nM)
[6]
  binding result: no binding (tested: up to 200 nM)
[7]
  binding result: no binding (tested: up to 200 nM)
[8]
  Kd: 0.24 nM
[9]
  Kd: 0.3 nM
[10]
  Kd: 0.35 nM
[11]
  Kd: 1.1 nM
[12]
  Kd: 18 nM
[13]
  Kd: 1.3 nM
[14]
  binding result: binds
[15]
  Kd: 40 nM
[16]
  binding result: binds
[17]
  Kd: 20 nM
[18]
  Kd: 1.1 nM
[19]
  Kd: 1.3 nM
[20]
  Kd: 0.65 nM
[21]
  Kd: 1.9 nM
[22]
  Kd: 2 nM
[23]
  binding result: binds
[24]
  Kd: 0.96 nM
[25]
  Kd: 1.1 nM
[26]
  Kd: 0.91 nM
[27]
  Kd: 0.24 nM
[28]
  Kd: 1.7 nM
[29]
  Kd: 1.9 nM
[30]
  binding result: binds
[31]
  Kd: 2 nM
[32]
  Kd: 52 nM
[33]
  binding result: binds
[34]
  binding result: binds
[35]
  Kd: 1.9 nM
[36]
  Kd: 0.96 nM
[37]
  Kd: 8.2 nM
